Reference: PMC10022743

Assays:
Test in all cases: immunoprecipitation followed by mass spectrometry
Conditions in all cases: 2 h EBSS and 300 nM Torin 1; YKT6 siRNA-treated HEK293T WT cells; read off a plot
[1] = target: SEC24C
[2] = target: STX5
[3] = target: SNAP23
[4] = target: NAPA
[5] = target: NSF
[6] = target: VAMP8
[7] = target: SEC22B
[8] = target: VTI1B
[9] = target: BET1

| Substance | other: Log2 T156A : WT ratio [1] [log2] | other: Log2 T156A : WT ratio [2] [log2] | other: Log2 T156A : WT ratio [3] [log2] | other: Log2 T156A : WT ratio [4] [log2] | other: Log2 T156A : WT ratio [5] [log2] | other: Log2 T156A : WT ratio [6] [log2] | other: Log2 T156A : WT ratio [7] [log2] | other: Log2 T156A : WT ratio [8] [log2] | other: Log2 T156A : WT ratio [9] [log2] | other: Log2 T156E : WT ratio [1] [log2] | other: Log2 T156E : WT ratio [2] [log2] | other: Log2 T156E : WT ratio [3] [log2] | other: Log2 T156E : WT ratio [4] [log2] | other: Log2 T156E : WT ratio [5] [log2] | other: Log2 T156E : WT ratio [6] [log2] | other: Log2 T156E : WT ratio [7] [log2] | other: Log2 T156E : WT ratio [8] [log2] | other: Log2 T156E : WT ratio [9] [log2] |
| --- | --- | --- | --- | --- | --- | --- | --- | --- | --- | --- | --- | --- | --- | --- | --- | --- | --- | --- |
| HA–YKT6-WT (full-length, siRNA-resistant) (from UniProt O15498) T156A | 0.67 | 1.2 | 2.8 | 1.6 | 2.3 | 1 | 1.9 | 1.4 | 0.27 |  |  |  |  |  |  |  |  |  |
| HA–YKT6-WT (full-length, siRNA-resistant) (from UniProt O15498) T156E |  |  |  |  |  |  |  |  |  | 0.18 | -0.7 | -1.5 | -0.8 | -0.3 | -2 | -1.3 | -0.7 | -4.4 |
